Test results reported in EP4682166A1 (Guangzhou Enmai Biotechnology Co., Ltd, dated 2026).
One block for each binder: values may come before it.

What was measured:
[1] = biological target: T1, natural NMI in joint fluid of an arthritic patient (human) (UniProt Q13287); assay: sandwich ELISA; detection 94C4-1-biotin 0.5µg/mL; joint fluid diluted 1/2
T1 sequence (looked up): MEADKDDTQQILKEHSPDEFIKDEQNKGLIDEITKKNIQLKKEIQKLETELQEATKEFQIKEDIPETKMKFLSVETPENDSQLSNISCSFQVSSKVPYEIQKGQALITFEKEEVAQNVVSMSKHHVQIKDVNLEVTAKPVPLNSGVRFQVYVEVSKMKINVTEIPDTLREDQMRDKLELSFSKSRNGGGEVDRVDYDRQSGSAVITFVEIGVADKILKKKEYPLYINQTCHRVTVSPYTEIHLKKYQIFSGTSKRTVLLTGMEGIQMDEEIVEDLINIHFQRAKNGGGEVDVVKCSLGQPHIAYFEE

[2] = biological target: T2, NMI-flag overexpressed protein (293T cells transfected with the hNMI-flag plasmid) (human) (UniProt Q13287); assay: sandwich ELISA; detection 94C4-1-biotin; cell supernatant of NMI-flag 293T, replicate 1
T2 sequence (looked up): T1 sequence (looked up)

[3] = biological target: T1, natural NMI in joint fluid of an arthritic patient (human); assay: sandwich ELISA; detection 94C4-1-biotin 0.5µg/mL; joint fluid stock solution
[4] = biological target: T3, human NMI (N-myc Interacting protein) (human) (UniProt Q13287); assay: magnetic-bead chemiluminescent sandwich, kit of Example 8-1; capture 98G10 beads, detection acridinium-B-8; series 3, hNMI 1000 pg/mL
T3 sequence (looked up): T1 sequence (looked up)

[5] = biological target: T3, human NMI (N-myc Interacting protein) (human); assay: magnetic-bead chemiluminescent sandwich, kit of Example 8-1; capture 98G10 beads, detection acridinium-B-8; series 1, hNMI 12000 pg/mL
[6] = biological target: T3, human NMI (N-myc Interacting protein) (human); assay: magnetic-bead chemiluminescent sandwich; capture 98G10 beads (0.5 mg 98G10), detection acridinium-B-8; hNMI 50 pg/ml
[7] = biological target: T3, human NMI (N-myc Interacting protein) (human); assay: magnetic-bead chemiluminescent sandwich; capture 98G10 beads, detection acridinium-B-8 (1.0 mg B-8 labelled); hNMI 100 pg/mL
[8] = biological target: T3, human NMI (N-myc Interacting protein) (human); assay: magnetic-bead chemiluminescent sandwich; capture 98G10 beads (0.5 mg 98G10), detection acridinium-B-8; hNMI 400 pg/ml
[9] = biological target: T3, human NMI (N-myc Interacting protein) (human); assay: magnetic-bead chemiluminescent sandwich, kit of Example 8-1; capture 98G10 beads, detection acridinium-B-8; series 3, hNMI 10000 pg/mL
[10] = biological target: T3, human NMI (N-myc Interacting protein) (human); assay: magnetic-bead chemiluminescent sandwich; capture 98G10 beads (1.0 mg 98G10), detection acridinium-B-8; hNMI 2000 pg/ml
[11] = biological target: T3, human NMI (N-myc Interacting protein) (human); assay: magnetic-bead chemiluminescent sandwich, kit of Example 8-1; capture 98G10 beads, detection acridinium-B-8; series 2, hNMI 1800 pg/mL
[12] = biological target: T3, human NMI (N-myc Interacting protein) (human); assay: magnetic-bead chemiluminescent sandwich, kit of Example 8-1; capture 98G10 beads, detection acridinium-B-8; series 2, hNMI 150 pg/mL
[13] = biological target: T3, human NMI (N-myc Interacting protein) (human); assay: magnetic-bead chemiluminescent sandwich; capture 98G10 beads, detection acridinium-B-8 (2.0 mg B-8 labelled); hNMI 2000 pg/mL
[14] = biological target: T3, human NMI (N-myc Interacting protein) (human); assay: magnetic-bead chemiluminescent sandwich; capture 98G10 beads (1.0 mg 98G10), detection acridinium-B-8; hNMI 50 pg/ml
[15] = biological target: T3, human NMI (N-myc Interacting protein) (human); assay: magnetic-bead chemiluminescent sandwich, kit of Example 8-1; capture 98G10 beads, detection acridinium-B-8; series 1, hNMI 6000 pg/mL
[16] = biological target: T3, human NMI (N-myc Interacting protein) (human); assay: magnetic-bead chemiluminescent sandwich; capture 98G10 beads, detection acridinium-B-8 (1.0 mg B-8 labelled); hNMI 1000 pg/mL
[17] = biological target: T3, human NMI (N-myc Interacting protein) (human); assay: magnetic-bead chemiluminescent sandwich, kit of Example 8-1; capture 98G10 beads, detection acridinium-B-8; series 1, hNMI 4000 pg/mL
[18] = biological target: T3, human NMI (N-myc Interacting protein) (human); assay: magnetic-bead chemiluminescent sandwich; capture 98G10 beads, detection acridinium-B-8 (2.0 mg B-8 labelled); hNMI 50 pg/mL
[19] = biological target: T3, human NMI (N-myc Interacting protein) (human); assay: magnetic-bead chemiluminescent sandwich; capture 98G10 beads, detection acridinium-B-8 (1.0 mg B-8 labelled); hNMI 400 pg/mL
[20] = biological target: T3, human NMI (N-myc Interacting protein) (human); assay: magnetic-bead chemiluminescent sandwich, kit of Example 8-1; capture 98G10 beads, detection acridinium-B-8; series 2, hNMI 5000 pg/mL
[21] = biological target: T3, human NMI (N-myc Interacting protein) (human); assay: magnetic-bead chemiluminescent sandwich, kit of Example 8-1; capture 98G10 beads, detection acridinium-B-8; series 1, hNMI 8000 pg/mL
[22] = biological target: T3, human NMI (N-myc Interacting protein) (human); assay: magnetic-bead chemiluminescent sandwich, kit of Example 8-1; capture 98G10 beads, detection acridinium-B-8; series 1, hNMI 1000 pg/mL
[23] = biological target: T3, human NMI (N-myc Interacting protein) (human); assay: magnetic-bead chemiluminescent sandwich, kit of Example 8-1; capture 98G10 beads, detection acridinium-B-8; series 3, hNMI 200 pg/mL
[24] = biological target: T3, human NMI (N-myc Interacting protein) (human); assay: magnetic-bead chemiluminescent sandwich; capture 98G10 beads (0.5 mg 98G10), detection acridinium-B-8; hNMI 100 pg/ml
[25] = biological target: T3, human NMI (N-myc Interacting protein) (human); assay: magnetic-bead chemiluminescent sandwich, kit of Example 8-1; capture 98G10 beads, detection acridinium-B-8; series 3, hNMI 4000 pg/mL

OD450 [1]: 0.128 OD450 | OD450 [2]: 0.897 OD450 | OD450 [3]: 0.221 OD450
B1: monoclonal antibody B-8 (antibody, V domains shown)
VH: QSLEESGGDLVKPGASLTLTCTASGFSFSSSYYMCWVRQAPGKGLEWIACIYAGSSGSTYYASWAKGRFTISKTSSTTVTLQMTSLTAADTATYFCAREYSYDDYGDFWGFNLWGPGTLVTVSS
VL: ALVMTQTPSSVSAAVGGTVTINCQASQNIYTNLAWYQQKPGQPPKLLIYGASNLESGVPSRFKGSGSGTEYTLTISDLECDDAATYYCQSSLYSRIADRANAFGGGTEVVVK
notes: Rabbit monoclonal antibody; also called B8-1

Signal value [4]: 131000 | Signal value [5]: 894000 | Signal value [6]: 4560 | Signal value [7]: 9490 | Signal value [8]: 39900 | Signal value [9]: 1.48e+06 | Signal value [10]: 397000 | Signal value [11]: 181000 | Signal value [12]: 15500 | Signal value [13]: 234000 | Signal value [14]: 11100 | Signal value [15]: 414000 | Signal value [16]: 97600 | Signal value [17]: 258000 | Signal value [18]: 6220 | Signal value [19]: 39900 | Signal value [20]: 560000 | Signal value [21]: 587000 | Signal value [22]: 57600 | Signal value [23]: 25700 | Signal value [24]: 9490 | Signal value [25]: 572000
B2: acridinium ester-labeled monoclonal antibody B-8 (antibody, V domains shown)
VH: B1 VH
VL: B1 VL
modifications: acridinium ester label on the antibody, site not stated
